# Where two headings read alike, the source gives them in different places. Where a SMILES comes first, the peptide text is derived from it. The star is where a group is joined. NEt(2-(20S-CPT-7-yl)ethyl) = CCN(CCc1c2c(nc3ccccc13)-c1cc3c(c(=O)n1C2)COC(=O)[C@]3(O)CC)*; X1 = CC[C@@]1(O)C(=O)OCc2c1cc1n(c2=O)Cc2c-1nc1ccccc1c2CCN(C1CCC1)*; X3 = CC[C@@]1(O)C(=O)OCc2c1cc1n(c2=O)Cc2c-1nc1ccccc1c2CCN(C1CC1)*; X7 = CC[C@@]1(O)C(=O)OCc2c1cc1n(c2=O)Cc2c-1nc1ccccc1c2CCN(C)*; Propanoyl(3-maleimido) = O=C1C=CC(=O)N1CCC(=O)*; PEG6 = NCCOCCOCCOCCOCCOCCOCCC(=O)O
# Columns and labels:
# A2780 (ovarian cancer) = test: cells; type: cell-based; conditions: CCK8, 48 h; Table 1
# Procedure, shortened: (§1)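 Tumour cells grow for 48 h with the compounds at several concentrations (5,000 cells/well, triplicate, 37° C, 5% CO2), in serum-supplemented RPMI1640 or high-glucose DMEM. Viability is measured with CCK8 reagent at 450 nm, and IC50 is calculated.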
# [1] = system: A549 (non-small cell lung cancer); test: cells; type: cell-based; conditions: CCK8, 48 h; Table 1
# Procedure, shortened: as §1
# SJSA-1 (sarcoma tissue) = test: cells; type: cell-based; conditions: CCK8, 48 h; Table 1
# Procedure, shortened: as §1
# [2] = system: SKBR3 (breast cancer tissue); test: cells; type: cell-based; conditions: CCK8, 48 h; Table 1
# Procedure, shortened: as §1
# [3] = system: sarcoma SJSA-1 tumor model; conditions: Table 2
# Procedure, shortened: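 SJSA-1 cells (2×10^7, DMEM/10% FBS, under 15 passages) implanted subcutaneously in right chest of female BALB/c nude mice, 6-8 weeks old. At ≥100 mm^3, randomized three per group; dosing once weekly for three weeks, saline as control, day 1 = first treatment.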
# [4] = system: colo320 colorectal cancer tumor model
# Procedure, shortened: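 Female BALB/c nude mice, 6–8 weeks old, received 7.5×10^6 colo320 cells subcutaneously in the right chest. Once tumors reached at least 120 mm^3 they were randomized three per group. Treatment with test agents or saline control was given once weekly for four weeks.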
# [5] = MTD determination in mice (Examples 27, 36, 44); type: in vivo; conditions: female, mouse, in vivo; mice, monitored for 14 d; Table 4
# Source text: Test animals: 6-8 weeks old mice, all female; mice were grouped randomly, with six mice in each group, administered with drugs at different concentration gradients separately and monitored for 14 d. A mouse was euthanized at a loss of 20% of its initial weight and deemed to have died of poisoning.
# [6] = Tumor homogenate activation efficiency, ovarian cancer tissue (Examples 28, 37); type: in vitro ADME; conditions: pH 5.0, 37° C., 2 h; Table 5
# Description: (§2) Buffer preparation: 50 mM PH buffer (MES), 250 mM NaCl, pH adjusted to 5.0 with 0.5 M of sodium hydroxide.
# (§3) The polypeptide conjugate was prepared into a 1 mg/ml solution with pH 5.0 buffer, 100 μg of tumor tissue homogenate was added, (the tumor tissue homogenate was the homogenate of tumor tissues prepared with a Jingxin F6/10 handheld homogenizer), and the solution was placed at 37° C. for 2 h. The tumor tissue homogenate could effectively activate the polypeptide conjugate and release Belotecan, and the activation efficiencies of the drugs in tumor tissues were compared by high-performance liquid chromatography (HPLC) allowing determination of a decrease in the compounds and an increase in Belotecan:
# (§4) Release percentage=peak area of Belotecan/total peak area of Belotecan and all other Belotecan-containing compounds
# (§5) The polypeptide conjugate was prepared into a 1 mg/ml solution with pH 5.0 buffer, 100 μg of tumor tissue homogenate was added, (the tumor tissue homogenate was the homogenate of tumor tissues prepared with a Jingxin F6/10 handheld homogenizer), and the solution was placed at 37° C. for 2 h. The tumor tissue homogenate could effectively activate the polypeptide conjugate and release Belotecan, and the activation efficiencies of the drugs in tumor tissues were compared by HPLC allowing determination of a decrease in the compounds and an increase in Belotecan: […]
# [7] = Tumor homogenate activation efficiency, sarcoma tissue (Examples 28, 37); type: in vitro ADME; conditions: pH 5.0, 37° C., 2 h; Table 5
# Description: as §2, §3, §4, §5
# [8] = Tumor homogenate activation efficiency, breast cancer tissue (Examples 28, 37); type: in vitro ADME; conditions: pH 5.0, 37° C., 2 h; Table 5
# Description: as §2, §3, §4, §5
# [9] = Tumor homogenate activation efficiency, non-small cell lung cancer tissue (Examples 28, 37); type: in vitro ADME; conditions: pH 5.0, 37° C., 2 h; Table 5
# Description: as §2, §3, §4, §5
# [10] = Tumor homogenate activation efficiency, small cell lung cancer tissue (Example 28); type: in vitro ADME; conditions: pH 5.0, 37° C., 2 h; Table 5
# Description: as §2, §3, §4
# [11] = Homogenate activation efficiency, heart tissue (Examples 28, 37); type: in vitro ADME; conditions: pH 5.0, 37° C., 2 h; Table 5
# [12] = 15 mg/kg once a week for three weeks
# [13] = 45 mg/kg once a week for three weeks
# [14] = 15 mg/kg once a week for four weeks, Table 3
# [15] = 45 mg/kg once a week for four weeks, Table 3
# [16] = Table 14 (Example 43), dose 45 mg/kg, once a week for four weeks, BALB/c mice
# [17] = Table 13 (Example 42), dose 45 mg/kg, once a week for four weeks, BALB/c mice
SMILES,IC50 A2780 (ovarian cancer) (A2780 (ovarian cancer)) [µg/mL],IC50 A549 (non-small cell lung cancer) [1] [µg/mL],IC50 SJSA-1 (sarcoma tissue) (SJSA-1 (sarcoma tissue)) [µg/mL],IC50 SKBR3 (breast cancer tissue) [2] [µg/mL],"Mouse weight (%) [3, 12]","Mouse weight (%) [3, 13]","SJSA-1 (sarcoma tissue) mean tumor volume (mm^3) [3, 13] [mm^3]","SJSA-1 (sarcoma) Growth rate (%) [3, 13] [%]","Mouse weight (%) [4, 14]","Mouse weight (%) [4, 15]","colo320 (colorectal cancer cell) growth rate (%) [4, 15] [%]","colo320 (colorectal cancer cell) mean tumor volume (mm^3) [4, 15] [mm^3]","Mouse weight (%) [4, 16]",MTD at 14 d [5] [mg/kg],Percentage of release efficiency (%) Ovarian cancer tissue (A2780) [6] [%],Percentage of release efficiency (%) Sarcoma tissue (SJSA1) [7] [%],Percentage of release efficiency (%) Breast cancer tissue (SKBR3) [8] [%],Percentage of release efficiency (%) Non-small cell lung cancer tissue (A549) [9] [%],Percentage of release efficiency (%) Small cell lung cancer tissue (NCI-H841) [10] [%],Percentage of release efficiency (%) Heart tissue [11] [%],also measured
CCN(CCc1c2c(nc3ccccc13)-c1cc3c(c(=O)n1C2)COC(=O)[C@]3(O)CC)C(=O)CNC(=O)[C@H](CCCCN)NC(=O)[C@H](C)NC(=O)[C@H](C)NC(=O)CCOCCOCCOCCOCCOCCOCCNC(=O)CCN1C(=O)C=CC1=O [MI-6PEG-AAKG-D2] ({Propanoyl(3-maleimido)-PEG6}-AAKG-{NEt(2-(20S-CPT-7-yl)ethyl)}),0.80,1.32,0.49,2.62,+27%,+31%,945.6,791.30,+27%,+24%,470.58,521.2,+24%,350,85.8,76.6,69.5,69.8,68,1.5,"SJSA-1 (sarcoma tissue) mean tumor volume (mm^3) [3, 12]: 1215.6 mm^3; SJSA-1 (sarcoma) Growth rate (%) [3, 12]: 980.32%; colo320 (colorectal cancer cell) growth rate (%) [4, 14]: 943.33%; colo320 (colorectal cancer cell) mean tumor volume (mm^3) [4, 14]: 1044.8 mm^3; colo320 (colorectal cancer cell) growth rate (%) [4, 16]: 470.58%; colo320 (colorectal cancer cell) mean tumor volume (mm^3) [4, 16]: 521.2 mm^3"
CCN(CCc1c2c(nc3ccccc13)-c1cc3c(c(=O)n1C2)COC(=O)[C@]3(O)CC)C(=O)CNC(=O)[C@H](CC(N)=O)NC(=O)[C@H](C)NC(=O)CNC(=O)CCOCCOCCOCCOCCOCCOCCNC(=O)CCN1C(=O)C=CC1=O [MI-6PEG-GANG-D2] ({Propanoyl(3-maleimido)-PEG6}-GANG-{NEt(2-(20S-CPT-7-yl)ethyl)}),,,,,,+18%,1065.2,918.28,,+39%,450.72,499.2,+39%,200,69.9,88.4,68.8,65.9,63.1,1.7,"colo320 (colorectal cancer cell) growth rate (%) [4, 16]: 450.72%; colo320 (colorectal cancer cell) mean tumor volume (mm^3) [4, 16]: 499.2 mm^3"
CC[C@@]1(O)C(=O)OCc2c1cc1n(c2=O)Cc2c-1nc1ccccc1c2CCN(C)C(=O)CNC(=O)[C@H](Cc1ccccc1)NC(=O)CNC(=O)CNC(=O)CCOCCOCCOCCOCCOCCOCCNC(=O)CCN1C(=O)C=CC1=O [MI-6PEG-GGFG-D1] ({Propanoyl(3-maleimido)-PEG6}-GGFG-X7),6.84,10.78,11.79,16.49,,,,,,+19%,605.35,671.3,,250,67.2,81.5,74.8,71.7,66.3,1.7,"Mouse weight (%) [4, 17]: +19%; colo320 (colorectal cancer cell) growth rate (%) [4, 17]: 605.35%; colo320 (colorectal cancer cell) mean tumor volume (mm^3) [4, 17]: 671.3 mm^3"
CC[C@@]1(O)C(=O)OCc2c1cc1n(c2=O)Cc2c-1nc1ccccc1c2CCN(C(=O)CNC(=O)[C@H](Cc1ccccc1)NC(=O)CNC(=O)CNC(=O)CCOCCOCCOCCOCCOCCOCCNC(=O)CCN1C(=O)C=CC1=O)C1CC1 [MI-6PEG-GGFG-D6] ({Propanoyl(3-maleimido)-PEG6}-GGFG-X3),1.19,1.31,0.73,2.30,+28%,+2%,,,+29%,+19%,,,,,66.3,80.7,67.1,83.7,72.1,2.4,
CC[C@@]1(O)C(=O)OCc2c1cc1n(c2=O)Cc2c-1nc1ccccc1c2CCN(C(=O)CNC(=O)[C@H](Cc1ccccc1)NC(=O)CNC(=O)CNC(=O)CCOCCOCCOCCOCCOCCOCCNC(=O)CCN1C(=O)C=CC1=O)C1CCC1 [MI-6PEG-GGFG-D7] ({Propanoyl(3-maleimido)-PEG6}-GGFG-X1),1.68,1.32,1.28,2.40,+24%,+27%,,,+28%,+20%,,,,,73.6,69.7,72.7,75.2,76.4,2.9,

# From patent publication US20250235545A1, “POLYPEPTIDE CONJUGATE AND USE THEREOF” (SHANGHAI CHIXI BIOMEDICAL TECHNOLOGY CO., LTD, priority 2024, published 2025)
